Measurements: patent publication US20260209350A1 (Alector, published 2026)

T1: mouse TREM2 on cells (mouse, UniProt Q99NH8 19-227)
T1 construct: whole, on cells; Used for the recombinant protein on BWZ/BW cells (with mouse DAP12) and for the native protein on mouse macrophages and dendritic cells; the cell type stands under assay; also called mTREM2; mTrem2
T1 sequence (looked up): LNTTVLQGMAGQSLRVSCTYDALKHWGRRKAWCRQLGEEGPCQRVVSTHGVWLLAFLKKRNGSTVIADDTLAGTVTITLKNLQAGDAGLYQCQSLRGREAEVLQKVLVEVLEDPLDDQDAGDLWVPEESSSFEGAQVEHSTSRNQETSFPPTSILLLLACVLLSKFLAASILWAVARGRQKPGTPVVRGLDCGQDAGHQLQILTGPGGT

T2: human TREM2 Fc fusion protein (human, UniProt Q9NZC2 19-174)
T2 construct: also called hTREM2-Fc; not shown: Fc part not specified
T2 sequence: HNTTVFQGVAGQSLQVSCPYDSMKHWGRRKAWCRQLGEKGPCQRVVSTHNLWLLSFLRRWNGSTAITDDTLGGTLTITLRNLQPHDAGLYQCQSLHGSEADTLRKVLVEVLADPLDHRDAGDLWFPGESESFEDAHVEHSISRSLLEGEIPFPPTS

T3: mouse TREM2 Fc fusion protein (mouse, UniProt Q99NH8 19-171)
T3 construct: also called mTREM2-Fc; not shown: Fc part not specified
T3 sequence (looked up): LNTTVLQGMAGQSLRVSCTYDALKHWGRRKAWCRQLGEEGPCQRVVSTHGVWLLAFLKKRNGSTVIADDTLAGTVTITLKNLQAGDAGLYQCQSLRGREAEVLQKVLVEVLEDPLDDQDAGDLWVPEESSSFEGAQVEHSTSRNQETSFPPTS


How the values were obtained:
mouse TREM2 on cells = target: T1, mouse TREM2 on cells; test: FACS, mTrem2 cells
[1] = target: T2, human TREM2 Fc fusion protein; test: ForteBio or MSD-SET, avid
[2] = target: T3, mouse TREM2 Fc fusion protein; test: ForteBio or MSD-SET, avid

Binder	MFI (mouse TREM2 on cells) [MFI]	Kd [1] [nM]	Kd [2] [nM]	binding result [2]
Ab24 (antibody, human IgG1, V domains shown, human IgG1) VH: not shown VL: DIQMTQSPSSLSASVGDRVTITCRASQSISSYLNWYQQKPGKAPKLLIYAASSLQSGVPSRFSGSGSGTDFTLTISSLQPEDFATYYCQQAFSPPPWTFGGGTKVEIK	2760	0.479	9.32	–
Ab25 (antibody, human IgG1, V domains shown, human IgG1) VH: not shown VL: EIVLTQSPGTLSLSPGERATLSCRASQSVSSSYLAWYQQKPGQAPRLLIYGASSRATGIPDRFSGSGSGTDFTLTISRLEPEDFAVYYCQQDDRSPTFGGGTKVEIK	2500	–	5.98	–
Ab27 (antibody, human IgG1, V domains shown, human IgG1) VH: not shown VL: EIVLTQSPATLSLSPGERATLSCRASQSVSSYLAWYQQKPGQAPRLLIYDASNRATGIPARFSGSGSGTDFTLTISSLEPEDFAVYYCQQYNNFPPTFGGGTKVEIK	2160	1.33	6.39	–
Ab28 (antibody, human IgG1, V domains shown, human IgG1) VH: not shown VL: EIVLTQSPATLSLSPGERATLSCRASQSVSSYLAWYQQKPGQAPRLLIYDASKRATGIPARFSGSGSGTDFTLTISSLEPEDFAVYYCQQRYLRPITFGGGTKVEIK	5250	0.915	7.45	–
Ab29 (antibody, human IgG1, V domains shown, human IgG1) VH: QVQLVESGGGVVQPGRSLRLSCAASGFTFSSYGMHWVRQAPGKGLEWVAVISYDGSNKYYADSVKGRFTISRDNSKNTLYLQMNSLRAEDTAVYYCARGQYYGGSGWFDPWGQGTLVTVSS VL: EIVLTQSPGTLSLSPGERATLSCRASQSVSSSYLAWYQQKPGQAPRLLIYGASSRATGIPDRFSGSGSGTDFTLTISRLEPEDFAVYYCQQPGAVPTFGGGTKVEIK	4520	2.36	3.27	–
Ab30 (antibody, human IgG1, V domains shown, human IgG1) VH: not shown VL: DIQMTQSPSSLSASVGDRVTITCRASQSISSYLNWYQQKPGKAPKLLIYGASSLQSGVPSRFSGSGSGTDFTLTISSLQPEDFATYYCQQVYITPITFGGGTKVEIK	–	1.32	–	no binding
Ab37 (antibody, human IgG1, V domains shown, human IgG1) VH: not shown VL: EIVLTQSPATLSLSPGERATLSCRASQSVSSYLAWYQQKPGQAPRLLIYDASNRATGIPARFSGSGSGTDFTLTISSLEPEDFAVYYCQQRAFLFTFGGGTKVEIK	1430	1.58	–	no binding
Ab41 (antibody, human IgG1, V domains shown, human IgG1) VH: EVQLLESGGGLVQPGGSLRLSCAASGFTFSTYAMSWVRQAPGKGLEWVSAISGSGGSTYYADSVKGRFTISRDNSKNTLYLQMNSLRAEDTAVYYCARAMARKSVAFDIWGQGTMVTVSS VL: EIVLTQSPATLSLSPGERATLSCRASQSVSSYLAWYQQKPGQAPRLLIYDASNRATGIPARFSGSGSGTDFTLTISSLEPEDFTVYYCQQRYALPITFGGGTKVEIK	373	2.14	8.64	–
Ab60 (antibody, human IgG1, V domains shown, human IgG1) VH: not shown VL: EIVLTQSPATLSLSPGERATLSCRASQSVSSYLAWYQQKPGQAPRLLIYDASKRATGIPARFSGSGSGTDFTLTISSLEPEDFAVYYCQQRASMPITFGGGTKVEIK	–	5.59	–	–
Ab61 (antibody, human IgG1, V domains shown, human IgG1) VH: QVQLVQSGAEVKKPGASVKVSCKASGYTFTSYGIHWVRQAPGQGLEWMGWISAYNGNTNYAQKLQGRVTMTTDTSTSTAYMELRSLRSDDTAVYYCARGGVPRVSYFQHWGQGTLVTVSS VL: EIVLTQSPATLSLSPGERATLSCRASQSVSSYLAWYQQKPGQAPRLLIYDSSNRATGIPARFSGSGSGTDFTLTISSLEPEDFAVYYCQQAFNRPPTFGGGTKVEIK	10500	4.61	–	–
Ab74 (antibody, human IgG1, V domains shown, human IgG1) VH: not shown VL: EIVLTQSPATLSLSPGERATLSCRASQSVSSYLAWYQQKPGQAPRLLIYDASNRATGIPARFSGSGSGTDFTLTISSLEPEDFAVYYCQQRSTFPITFGGGTKVEIK	1360	9.43	4.91	–
Ab73 (antibody, human IgG1, V domains shown, human IgG1) VH: EVQLVQSGAEVKKPGESLKISCKGSGYSFTSYWIGWVRQMPGKGLEWMGIIYPGDSDTTYSPSFQGQVTISADKSISTAYLQWSSLKASDTAMYYCARAKMLDDGYAFDIWGQGTMVTVSS VL: EIVMTQSPATLSVSPGERATLSCRASQSVSSNLAWYQQKPGQAPRLLIYGASTRATGIPARFSGSGSGTEFTLTISSLQSEDFAVYYCQQDDNYPYTFGGGTKVEIK	1120	4.1	–	no binding
Ab75 (antibody, human IgG1, V domains shown, human IgG1) VH: not shown VL: EIVLTQSPATLSLSPGERATLSCRASQSVSSYLAWYQQKPGQAPRLLIYDASNRATGIPARFSGSGSGTDFTLTISSLEPEDFAVYYCQQVSNYPFTFGGGTKVEIK	276	5.88	–	no binding
Ab76 (antibody, human IgG1, V domains shown, human IgG1) VH: EVQLVESGGGLVKPGGSLRLSCAASGFTFSSYSMNWVRQAPGKGLEWVSSISSSSSYIYYADSVKGRFTISRDNAKNSLYLQMNSLRAEDTAVYYCARGGGRRGDNNWFDPWGQGTLVTVSS VL: not shown	–	4.84	–	–
Ab77 (antibody, human IgG1, V domains shown, human IgG1) VH: QVQLVESGGGVVQPGRSLRLSCAASGFTFSSYGMHWVRQAPGKGLEWVAVISYDGSNKYYADSVKGRFTISRDNSKNTLYLQMNSLRAEDTAVYYCARGPPHEMDYWGQGTLVTVSS VL: not shown	1650	–	–	no binding
Ab79 (antibody, human IgG1, V domains shown, human IgG1) VH: EVQLVESGGGLVQPGGSLRLSCAASGFTFSSYSMNWVRQAPGKGLEWVSYISGSSSTIYYADSVKGRFTISRDNAKNSLYLQMNSLRAEDTAVYYCARGGRRHYGGMDVWGQGTTVTVSS VL: not shown	738	10.7	–	no binding
Ab80 (antibody, human IgG1, V domains shown, human IgG1) VH: QVQLVQSGAEVKKPGSSVKVSCKASGGTFSSYAISWVRQAPGQGLEWMGGIIPIFGTANYAQKFQGRVTITADESTSTAYMELSSLRSEDTAVYYCARGGGTFWSGSWALYWGQGTLVTVSS VL: EIVLTQSPATLSLSPGERATLSCRASQSVSSYLAWYQQKPGQAPRLLIYDASNRATGIPARFSGSGSGTDFTLTISSLEPEDFAVYYCQQYVNWPFTFGGGTKVEIK	593	5.72	8.85	–
Ab81 (antibody, human IgG1, V domains shown, human IgG1) VH: QVQLVQSGAEVKKPGSSVKVSCKASGGTFSSYAISWVRQAPGQGLEWMGGIIPIFGTANYAQKFQGRVTITADESTSTAYMELSSLRSEDTAVYYCARDSGNYDYWSGALRYWGQGTLVTVSS VL: EIVLTQSPATLSLSPGERATLSCRASQSVSSYLAWYQQKPGQAPRLLIYDASNRATGIPARFSGSGSGTDFTLTISSLEPEDFAVYYCQQSSNWPWTFGGGTKVEIK	400	10.1	–	no binding
Ab82 (antibody, human IgG1, V domains shown, human IgG1) VH: QVQLQESGPGLVKPSQTLSLTCTVSGGSISSGGYYWSWIRQHPGKGLEWIGYIYYSGSTVYNPSLKSRVTISVDTSKNQFSLKLSSVTAADTAVYYCARVSSSWYKAWGQGTMVTVSS VL: DIQMTQSPSSVSASVGDRVTITCRASQGISSWLAWYQQKPGKAPKLLIYAASSLQSGVPSRFSGSGSGTDFTLTISSLQPEDFATYYCQQASTFPITFGGGTKVEIK	712	11	5.82	–
Ab83 (antibody, human IgG1, V domains shown, human IgG1) VH: QVQLQQWGAGLLKPSETLSLTCAVYGGSFSGYYWSWIRQPPGKGLEWIGEIDHSGSTKYNPSLKSRVTISVDTSKNQFSLKLSSVTAADTAVYYCARVGVVVGRPGYSAFDIWGQGTMVTVSS VL: DIQMTQSPSSVSASVGDRVTITCRASQGISSWLAWYQQKPGKAPKLLIYAASSLQSGVPSRFSGSGSGTDFTLTISSLQPEDFATYYCQQRNSLPLTFGGGTKVEIK	–	8.21	–	–
Ab85 (antibody, human IgG1, V domains shown, human IgG1) VH: QVQLVESGGGVVQPGRSLRLSCAASGFTFSSYGMHWVRQAPGKGLEWVAVIWYDGSNKYYADSVKGRFTISRDNSKNTLYLQMNSLRAEDTAVYYCAKDLGGYYGGAAYGMDVWGQGTTVTVSS VL: DIQLTQSPSSVSASVGDRVTITCRASQDISSWLAWYQQKPGKAPKLLIYAASSLQSGVPSRFSGSGSGTDFTLTISSLQPEDFATYYCQQEVDYPPLTFGGGTKVEIK	1120	5.72	2.19	–
Ab86 (antibody, human IgG1, V domains shown, human IgG1) VH: QVQLVESGGGVVQPGRSLRLSCAASGFTFSSYGMHWVRQAPGKGLEWVAVISYDGSNKYYADSVKGRFTISRDNSKNTLYLQMNSLRAEDTAVYYCAKDGVYYGLGNWFDPWGQGTLVTVSS VL: not shown	355	3.89	6.55	–
